The experiment concerns the target T1, CD79b蛋白 (on CHO-K1-CD79b细胞 / A375-CD79b细胞) (Homo sapiens (Human), UniProt P40259 29-229).
T1 sequence: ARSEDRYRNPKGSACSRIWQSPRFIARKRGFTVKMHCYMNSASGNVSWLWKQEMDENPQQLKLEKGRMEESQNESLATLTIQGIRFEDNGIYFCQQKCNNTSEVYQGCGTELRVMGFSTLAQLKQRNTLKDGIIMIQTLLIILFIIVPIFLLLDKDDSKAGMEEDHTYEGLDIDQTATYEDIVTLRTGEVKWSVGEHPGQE
Put plainly: flow cytometry on CHO-K1-CD79b cells, Alexa-647 anti-human Fc detection.

The values that follow come from patent CN115368446A (HEFEI TIANGANG IMMUNOLOGY PHARMACEUTICAL CO LTD, dated 2022).

B1: 抗体CD3×CD79b (bispecific antibody, human IgG1, kappa, L234A L235A)
scFv: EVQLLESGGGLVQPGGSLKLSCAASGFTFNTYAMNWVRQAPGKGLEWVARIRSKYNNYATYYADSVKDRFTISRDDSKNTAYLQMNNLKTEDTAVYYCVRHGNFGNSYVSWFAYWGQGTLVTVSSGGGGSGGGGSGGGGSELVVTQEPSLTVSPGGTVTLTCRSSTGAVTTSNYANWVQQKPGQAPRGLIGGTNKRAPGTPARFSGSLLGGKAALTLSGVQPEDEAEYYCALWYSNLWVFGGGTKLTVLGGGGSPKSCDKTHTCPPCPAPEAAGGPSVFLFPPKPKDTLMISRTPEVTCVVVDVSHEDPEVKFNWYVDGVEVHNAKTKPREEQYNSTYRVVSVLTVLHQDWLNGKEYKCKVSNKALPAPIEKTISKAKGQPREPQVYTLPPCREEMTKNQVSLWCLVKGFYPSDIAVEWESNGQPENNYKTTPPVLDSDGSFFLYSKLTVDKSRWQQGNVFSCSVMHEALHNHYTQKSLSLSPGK
heavy: EVQLVESGGGLVQPGGSLRLSCAASGYTFSSYWIEWVRQAPGKGLEWIGEILPGGGDTNYNEIFKGRATFSADTSKNTAYLQMNSLRAEDTAVYYCTRRVPIRLDYWGQGTLVTVSSASTKGPSVFPLAPSSKSTSGGTAALGCLVKDYFPEPVTVSWNSGALTSGVHTFPAVLQSSGLYSLSSVVTVPSSSLGTQTYICNVNHKPSNTKVDKKVEPKSCDKTHTCPPCPAPEAAGGPSVFLFPPKPKDTLMISRTPEVTCVVVDVSHEDPEVKFNWYVDGVEVHNAKTKPREEQYNSTYRVVSVLTVLHQDWLNGKEYKCKVSNKALPAPIEKTISKAKGQPREPQVCTLPPSREEMTKNQVSLSCAVKGFYPSDIAVEWESNGQPENNYKTTPPVLDSDGSFFLVSKLTVDKSRWQQGNVFSCSVMHEALHNHYTQKSLSLSPGK
light: DIQLTQSPSSLSASVGDRVTITCKASQSVDYEGDSFLNWYQQKPGKAPKLLIYAASNLESGVPSRFSGSGSGTDFTLTISSLQPEDFATYYCQQSNEDPLTFGQGTKVEIKRTVAAPSVFIFPPSDEQLKSGTASVVCLLNNFYPREAKVQWKVDNALQSGNSQESVTEQDSKDSTYSLSSTLTLSKADYEKHKVYACEVTHQGLSSPVTKSFNRGEC
notes: Three-chain knob-into-hole bispecific made in ExpiCHO cells and purified on Protein A; also called CD3×CD79b抗体; CD3×CD79b双特异抗体
B1: the binding result is on record as “binds”.
